Laboratory results taken from article PMC2981644 (Journal of molecular biology, 2010).
Values belong to the binder of their own block, whether it stands above or below them. No end group written: not given here. Alexa 488 = Alexa Fluor 488 dye

T1: Clathrin heavy chain terminal domain (Rattus norvegicus, UniProt P11442)
T1 chain: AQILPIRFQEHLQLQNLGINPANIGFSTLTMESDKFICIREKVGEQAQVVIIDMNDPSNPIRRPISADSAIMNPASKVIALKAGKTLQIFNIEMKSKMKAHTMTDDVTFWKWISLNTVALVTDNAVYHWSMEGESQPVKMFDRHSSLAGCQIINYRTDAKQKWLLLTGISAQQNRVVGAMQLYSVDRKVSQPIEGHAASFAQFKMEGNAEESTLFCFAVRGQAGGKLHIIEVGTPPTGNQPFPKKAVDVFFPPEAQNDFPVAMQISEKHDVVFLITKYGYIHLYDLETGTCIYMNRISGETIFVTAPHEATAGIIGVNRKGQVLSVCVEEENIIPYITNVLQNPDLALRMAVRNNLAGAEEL

B1: Alexa488-AP180 M5 (aa 623-680), wild type, fluorescently labelled (domain or fragment)
chain: {Alexa 488}-ASTASPAK(Alexa 488)AESSGVIDLFGDAFGSGASETQPAPQAVSSSSASADLLAGFGGSFMAPST
B2: AP180 M5 site 2 (residues 639-642 to alanines), fluorescently labelled for AUC (domain or fragment)
chain: {Alexa 488}-ASTASPAK(Alexa 488)AESSGVIDAAAAAFGSGASETQPAPQAVSSSSASADLLAGFGGSFMAPST
B3: clathrin TD, N-terminal domain of the clathrin heavy chain (aa 1-363) (domain or fragment, UniProt P49951 1-363, looked up)
chain: MAQILPIRFQEHLQLQNLGINPANIGFSTLTMESDKFICIREKVGEQAQVVIIDMNDPSNPIRRPISADSAIMNPASKVIALKAGKTLQIFNIEMKSKMKAHTMTDDVTFWKWISLNTVALVTDNAVYHWSMEGESQPVKMFDRHSSLAGCQIINYRTDAKQKWLLLTGISAQQNRVVGAMQLYSVDRKVSQPIEGHAASFAQFKMEGNAEESTLFCFAVRGQAGGKLHIIEVGTPPTGNQPFPKKAVDVFFPPEAQNDFPVAMQISEKHDVVFLITKYGYIHLYDLETGTCIYMNRISGETIFVTAPHEATAGIIGVNRKGQVLSVCVEEENIIPYITNVLQNPDLALRMAVRNNLAGAEEL
B4: AP180 M5 site 1 (residues 667-668 to alanines), fluorescently labelled for AUC (domain or fragment)
chain: {Alexa 488}-ASTASPAK(Alexa 488)AESSGVIDLFGDAFGSGASETQPAPQAVSSSSASADAAAGFGGSFMAPST

Columns and labels:
[1] = biological target: B3; experiment: AUC
[2] = biological target: T1, Clathrin heavy chain terminal domain; experiment: NMR
[3] = biological target: AP180 M5 (aa 623-680), wild type, middle segment of the AP180 C-terminal domain (UniProt Q05140-2 623-680); experiment: NMR titration
[4] = biological target: AP180 M5 site 1 (single-site AP180 M5, residues 667-668 mutated to alanines; binding site 2 mutated), Q05140; experiment: NMR titration
[5] = biological target: AP180 M5 site 2 (single-site AP180 M5, residues 639-642 mutated to alanines; binding site 1 mutated), Q05140; experiment: NMR titration

Binder: B1
Kd [1]: 173 ± 11 µM

Kd [2]: 160 µM
Binder: TAVDAFAAPSPASTASPAKA [AP180 M5 fragment, binding site 1]

Binder: B2
Kd [1]: 253 ± 8 µM

Binder: B3
KD of binding site 1 [3]: 160 ± 23 µM | KD of binding site 2 [3]: 224 ± 48 µM | Kd [4]: 168 µM | Kd [5]: 246 µM

Binder: B4
Kd [1]: 251 ± 3 µM
